{"source": "paper PMC9499636", "origin": "cited, not measured here", "key": {"EphA2 Sam (Homo sapiens) [1]": {"molecular_target": "EphA2 Sam (Homo sapiens) (UniProt P29317)", "experiment": "SPR"}, "EphA2 Sam (Homo sapiens) [2]": {"molecular_target": "EphA2 Sam (Homo sapiens) (UniProt P29317)", "experiment": "ITC"}, "[3]": {"molecular_target": "EphA2-Sam Sam (Homo sapiens) (UniProt P29317)", "experiment": "SPR"}, "Ship2 Sam (Homo sapiens) [4]": {"molecular_target": "Ship2 Sam (Homo sapiens) (UniProt O15357)", "sequence (O15357 1193-1258)": "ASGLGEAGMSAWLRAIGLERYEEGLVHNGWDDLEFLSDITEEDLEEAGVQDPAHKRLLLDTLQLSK", "experiment": "SPR"}, "Ship2 Sam (Homo sapiens) [5]": {"molecular_target": "Ship2 Sam (Homo sapiens) (UniProt O15357)", "experiment": "ITC"}}}
{"substance": "Odin Sam1 (from UniProt Q92625)", "values": [{"measurement": "Kd", "setting": "EphA2 Sam (Homo sapiens) [1]", "value": 5.5, "unit": "µM"}, {"measurement": "Kd", "setting": "EphA2 Sam (Homo sapiens) [2]", "value": 0.62, "unit": "µM"}]}
{"substance": "Pep3 (from UniProt Q92625)", "values": [{"measurement": "Kd", "setting": "[3]", "value": 523, "unit": "µM"}]}
{"substance": "EphA2 Sam (from UniProt P29317)", "values": [{"measurement": "Kd", "setting": "Ship2 Sam (Homo sapiens) [4]", "value": 2.2, "unit": "µM"}, {"measurement": "Kd", "setting": "Ship2 Sam (Homo sapiens) [5]", "value": 0.75, "unit": "µM"}]}
{"substance": "Pep2 (from UniProt Q92625)", "values": [{"measurement": "Kd", "setting": "[3]", "value": 222, "unit": "µM"}]}
